Results from the supplement of paper PMC9112550, “Optimization of the antimicrobial peptide Bac7 by deep mutational scanning” (BMC Biology, 2022).

These sequences were tested on Escherichia coli TOP10 (assay: shrunken log2 fold change of peptide-encoding DNA abundance (4.5 h post-induction vs induction); higher = less antimicrobial activity (less host growth inhibition)). Settings: time post-induction: 4.5 h; library: site-saturation at positions 5, 18, 19, 20.
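Further: peptides expressed intracellularly from a pBAD plasmid library in pooled LB shake-flask culture, induced with 0.3% L-arabinose, DNA abundance read by NGS, three biological replicates, DESeq2 with apeglm shrinkage.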

Sequence | shrunken log2 fold change
RRIRLRPPRLPRPRPRPHRMPRP | -0.0961
RRIRYRPPRLPRPRPRPSAGPRP | -0.165
RRIRPRPPRLPRPRPRPMQWPRP | 0.169
RRIRHRPPRLPRPRPRPLQKPRP | 0.104
RRIRKRPPRLPRPRPRPWDWPRP | 0.504
RRIRMRPPRLPRPRPRPIDTPRP | 0.0143
RRIRYRPPRLPRPRPRPTQMPRP | -0.213
RRIRVRPPRLPRPRPRPNMLPRP | -0.432
RRIRLRPPRLPRPRPRPCQEPRP | -0.0108
RRIRMRPPRLPRPRPRPDFFPRP | 0.29
RRIRCRPPRLPRPRPRPKIHPRP | -0.558
RRIRWRPPRLPRPRPRPPHCPRP | 0.754
RRIRHRPPRLPRPRPRPHYRPRP | -0.0219
RRIRIRPPRLPRPRPRPEHKPRP | -0.199
RRIRTRPPRLPRPRPRPVWSPRP | -0.00993
RRIRNRPPRLPRPRPRPRNEPRP | 0.121
RRIRFRPPRLPRPRPRPFRAPRP | 0.0466
RRIRCRPPRLPRPRPRPWYPPRP | -0.742
RRIRHRPPRLPRPRPRPTQWPRP | 0.0126
RRIRLRPPRLPRPRPRPMVHPRP | 0.012
RRIRRRPPRLPRPRPRPVHMPRP | 2.19
RRIRLRPPRLPRPRPRPDHGPRP | -0.147
RRIRYRPPRLPRPRPRPKGPPRP | -0.0132
RRIRTRPPRLPRPRPRPDNEPRP | -0.248
RRIRSRPPRLPRPRPRPKMKPRP | 0.912

Sequence | shrunken log2 fold change
RRIRFRPPRLPRPRPRPICQPRP | -0.182
RRIRLRPPRLPRPRPRPQGKPRP | 0.0467
RRIRRRPPRLPRPRPRPYPDPRP | -0.0558
RRIRHRPPRLPRPRPRPGDMPRP | -0.157
RRIRGRPPRLPRPRPRPVWDPRP | 0.593
RRIRVRPPRLPRPRPRPERQPRP | 0.514
RRIRVRPPRLPRPRPRPQFTPRP | -0.697
RRIRDRPPRLPRPRPRPMRWPRP | 0.274
RRIRWRPPRLPRPRPRPGWVPRP | 0.224
RRIRRRPPRLPRPRPRPKKLPRP | 0.166
RRIRKRPPRLPRPRPRPIDKPRP | 0.0797
RRIRWRPPRLPRPRPRPGKMPRP | 0.0641
RRIRRRPPRLPRPRPRPGFIPRP | -0.00928
RRIRYRPPRLPRPRPRPVFAPRP | 0.0473
RRIRRRPPRLPRPRPRPRKCPRP | 0.22
RRIRARPPRLPRPRPRPVPYPRP | -0.0718
RRIRFRPPRLPRPRPRPRWKPRP | 0.217
RRIRPRPPRLPRPRPRPTCRPRP | 0.418
RRIRTRPPRLPRPRPRPFIEPRP | -0.553
RRIRKRPPRLPRPRPRPSDCPRP | -0.00471
RRIRRRPPRLPRPRPRPRIEPRP | 0.261
RRIRCRPPRLPRPRPRPNWKPRP | 0.0151
RRIRQRPPRLPRPRPRPMLNPRP | 0.014
RRIRVRPPRLPRPRPRPIRPPRP | -0.0154
RRIRRRPPRLPRPRPRPLRIPRP | 0.724

Sequence | shrunken log2 fold change
RRIRLRPPRLPRPRPRPQDVPRP | -0.0265
RRIRGRPPRLPRPRPRPQDVPRP | 0.0766
RRIRLRPPRLPRPRPRPSWWPRP | 1.77
RRIRGRPPRLPRPRPRPHHVPRP | -0.00478
RRIRSRPPRLPRPRPRPGREPRP | 0.325
RRIRWRPPRLPRPRPRPSPFPRP | -0.245
RRIRNRPPRLPRPRPRPHGYPRP | -0.066
RRIRIRPPRLPRPRPRPFGWPRP | 0.468
RRIRSRPPRLPRPRPRPSQQPRP | 0.0577
RRIRTRPPRLPRPRPRPMAWPRP | 0.114
RRIRARPPRLPRPRPRPDMRPRP | 0.737
RRIRQRPPRLPRPRPRPMVMPRP | 0.0852
RRIRRRPPRLPRPRPRPSCPPRP | 0.941
RRIRHRPPRLPRPRPRPTVGPRP | 0.0689
RRIRSRPPRLPRPRPRPRVTPRP | 0.169
RRIRIRPPRLPRPRPRPLTAPRP | 0.00505
RRIRTRPPRLPRPRPRPHKFPRP | -0.18
RRIRQRPPRLPRPRPRPHDDPRP | 0.043
RRIRYRPPRLPRPRPRPDKQPRP | 0.0233
RRIRKRPPRLPRPRPRPGKLPRP | -0.208
RRIRTRPPRLPRPRPRPDKIPRP | -0.172
RRIRPRPPRLPRPRPRPYFIPRP | -0.656
RRIRIRPPRLPRPRPRPIPCPRP | -0.00867
RRIRRRPPRLPRPRPRPRNNPRP | -0.204
RRIRERPPRLPRPRPRPSQKPRP | 0.0497

Sequence | shrunken log2 fold change
RRIRFRPPRLPRPRPRPQKGPRP | 0.107
RRIRDRPPRLPRPRPRPIAVPRP | -0.00168
RRIRSRPPRLPRPRPRPSWGPRP | -0.114
RRIRNRPPRLPRPRPRPEPPPRP | 0.758
RRIRHRPPRLPRPRPRPISNPRP | -0.779
RRIRGRPPRLPRPRPRPEDIPRP | 0.165
RRIRIRPPRLPRPRPRPGWQPRP | 0.449
RRIRQRPPRLPRPRPRPCELPRP | 0.0039
RRIRVRPPRLPRPRPRPSWEPRP | -0.0979
RRIRTRPPRLPRPRPRPKDNPRP | -0.5
RRIRARPPRLPRPRPRPNDRPRP | -0.0519
RRIRNRPPRLPRPRPRPNFPPRP | -0.0305
RRIRIRPPRLPRPRPRPKYNPRP | -1.01
RRIRMRPPRLPRPRPRPDKMPRP | 0.323
RRIRQRPPRLPRPRPRPTFTPRP | -0.222
RRIRDRPPRLPRPRPRPGPFPRP | 0.174
RRIRVRPPRLPRPRPRPVRHPRP | 0.0933
RRIRPRPPRLPRPRPRPVWNPRP | -0.109
RRIRFRPPRLPRPRPRPWRKPRP | -0.0813
RRIRKRPPRLPRPRPRPQPWPRP | 0.805
RRIRERPPRLPRPRPRPPRYPRP | -0.202
RRIRIRPPRLPRPRPRPCVEPRP | -0.0421
RRIRCRPPRLPRPRPRPYRYPRP | -0.262
RRIRMRPPRLPRPRPRPYCIPRP | 0.0786
RRIRRRPPRLPRPRPRPGLTPRP | 0.508

Sequence | shrunken log2 fold change
RRIRHRPPRLPRPRPRPPRKPRP | -0.0559
RRIRPRPPRLPRPRPRPITLPRP | 0.0118
RRIRVRPPRLPRPRPRPKSGPRP | 0.148
RRIRMRPPRLPRPRPRPVWWPRP | -0.0717
RRIRSRPPRLPRPRPRPAEDPRP | -0.0146
RRIRDRPPRLPRPRPRPQKWPRP | 0.15
RRIRFRPPRLPRPRPRPRDAPRP | 0.541
RRIRERPPRLPRPRPRPDTYPRP | 0.0491
RRIRHRPPRLPRPRPRPYLMPRP | -0.554
RRIRCRPPRLPRPRPRPGYPPRP | -0.00859
RRIRVRPPRLPRPRPRPWMSPRP | -0.076
RRIRRRPPRLPRPRPRPRHCPRP | 0.119
RRIRDRPPRLPRPRPRPTLQPRP | 0.981
RRIRERPPRLPRPRPRPFQEPRP | -0.0402
RRIRDRPPRLPRPRPRPTADPRP | 0.133
RRIRRRPPRLPRPRPRPEAEPRP | 0.853
RRIRYRPPRLPRPRPRPSYIPRP | -1.4
RRIRPRPPRLPRPRPRPLKAPRP | -0.0747
RRIRFRPPRLPRPRPRPTWYPRP | -0.0222
RRIRDRPPRLPRPRPRPMLQPRP | 0.0454
RRIRCRPPRLPRPRPRPYGTPRP | 0.016
RRIRLRPPRLPRPRPRPNIVPRP | -0.00437
RRIRCRPPRLPRPRPRPFADPRP | -0.45
RRIRVRPPRLPRPRPRPEPVPRP | 0.365
RRIRYRPPRLPRPRPRPHCRPRP | -0.372

Sequence | shrunken log2 fold change
RRIRSRPPRLPRPRPRPQCLPRP | -0.208
RRIRRRPPRLPRPRPRPGKHPRP | -0.0322
RRIRNRPPRLPRPRPRPLMMPRP | -0.193
RRIRTRPPRLPRPRPRPNPRPRP | 0.23
RRIRERPPRLPRPRPRPPAQPRP | 0.0318
RRIRMRPPRLPRPRPRPHCMPRP | -0.122
RRIRGRPPRLPRPRPRPQVKPRP | 0.564
RRIRTRPPRLPRPRPRPMNLPRP | -0.348
RRIRARPPRLPRPRPRPHQDPRP | -0.126
RRIRERPPRLPRPRPRPQLDPRP | 0.115
RRIRSRPPRLPRPRPRPGCMPRP | 0.0917
RRIRPRPPRLPRPRPRPGPSPRP | 0.0312
RRIRNRPPRLPRPRPRPDWAPRP | -0.0406
RRIRDRPPRLPRPRPRPHDRPRP | -0.00543
RRIRARPPRLPRPRPRPAIIPRP | 0.101
RRIRERPPRLPRPRPRPLETPRP | -0.0311
RRIRARPPRLPRPRPRPIGVPRP | 0.892
RRIRERPPRLPRPRPRPDWVPRP | 0.0322
RRIRVRPPRLPRPRPRPSACPRP | -0.768
RRIRERPPRLPRPRPRPMNNPRP | -0.637
RRIRMRPPRLPRPRPRPLTAPRP | 1.15
RRIRKRPPRLPRPRPRPTHHPRP | 0.897
RRIRFRPPRLPRPRPRPVWSPRP | 0.175
RRIRTRPPRLPRPRPRPTFQPRP | 0.0412
RRIRSRPPRLPRPRPRPVNCPRP | -0.247
